The source of these data is article PMC9352680, “A comprehensive thermodynamic model for RNA binding by the Saccharomyces cerevisiae Pumilio protein PUF4”.

Where only a bound is given, the exact number is not on record here.

First the molecules themselves.
T1: PUF4 RNA-binding domain (Saccharomyces cerevisiae, UniProt P25339 537-888)
T1 sequence: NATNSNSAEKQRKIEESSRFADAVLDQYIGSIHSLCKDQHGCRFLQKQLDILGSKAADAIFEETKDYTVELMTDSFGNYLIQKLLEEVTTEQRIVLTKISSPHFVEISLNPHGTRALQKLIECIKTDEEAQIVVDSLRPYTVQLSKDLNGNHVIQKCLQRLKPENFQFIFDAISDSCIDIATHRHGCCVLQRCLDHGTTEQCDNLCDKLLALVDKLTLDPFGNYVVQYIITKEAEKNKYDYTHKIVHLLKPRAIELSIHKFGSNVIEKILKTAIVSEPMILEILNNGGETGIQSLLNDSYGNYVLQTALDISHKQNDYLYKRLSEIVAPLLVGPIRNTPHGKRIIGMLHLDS

B1: Ie_S4_P3E.2_K3.1_C3.2_[+-2CCCTT]_H3.1_A3.1_F3.1_T3.2 (ssRNA)
RNA: UUUGACAACUGAUCGUUCUUUCUCCCCUUUUGUAUAUAUAUUCUUUCUCGAUCAGUUGUCUUU
B2: Ie_S4_P3E.2_K3.1_C3.2_[+-2TTCC]_H3.1_A3.1_F3.1_T3.2 (ssRNA)
RNA: UUUGACAACUGAUCGUUCUUUCUCUUCCUUGUAUAUAUAUUCUUUCUCGAUCAGUUGUCUUU
B3: Ie_S4_P3E.2_K3.1_C3.2_[+-2CCC]_H3.1_A3.1_F3.1_T3.2 (ssRNA)
RNA: UUUGACAACUGAUCGUUCUUUCUCCCCUUGUAUAUAUAUUCUUUCUCGAUCAGUUGUCUUU
B4: Ie_S4_P3E.2_K3.1_C3.2_[+-1CT]_H3.1_A3.1_F3.1_T3.2 (ssRNA)
RNA: UUUGACAACUGAUCGUUCUUUCUCUCUUGUAUAUAUAUUCUUUCUCGAUCAGUUGUCUUU
B5: Ie_S4_P3E.2_K3.1_C3.2_[+-1TC]_H3.1_A3.1_F3.1_T3.2 (ssRNA)
RNA: UUUGACAACUGAUCGUUCUUUCUCUUCUGUAUAUAUAUUCUUUCUCGAUCAGUUGUCUUU
B6: Ie_S4_P3E.2_K3.1_C3.2_[+-1TT]_H3.1_A3.1_F3.1_T3.2 (ssRNA)
RNA: UUUGACAACUGAUCGUUCUUUCUCUUUUGUAUAUAUAUUCUUUCUCGAUCAGUUGUCUUU
B7: Ie_S4_P3E.2_K3.1_C3.2_[+-2T]_H3.1_A3.1_F3.1_T3.2 (ssRNA)
RNA: UUUGACAACUGAUCGUUCUUUCUCUUUGUAUAUAUAUUCUUUCUCGAUCAGUUGUCUUU
B8: Ie_S4_P3E.2_K3.1_C3.2_[+-1C]_H3.1_A3.1_F3.1_T3.2 (ssRNA)
RNA: UUUGACAACUGAUCGUUCUUUCUCUCUGUAUAUAUAUUCUUUCUCGAUCAGUUGUCUUU
B9: Ib_S2_P3E.1_K3.1_C3.1_H3.1_[T1C]_A3.1_[T5A]_F3.1_T3.1 (ssRNA)
RNA: UUUGAUUAAUAUGAUAUCGUUCUUUCUCGUAAAUAUUCUUUCUCGAUAUCAUAUUAAUCUUU
B10: Ib_S2_P3E.1_K3.1_C3.1_H3.1_[T1G]_A3.1_[A6T]_F3.1_T3.1 (ssRNA)
RNA: UUUGAUUAAUAUGAUAUCGUUCUUUCUGGUAUUUAUUCUUUCUCGAUAUCAUAUUAAUCUUU
B11: Ib_S2_P3E.1_K3.1_C3.1_H3.1_[T1C]_A3.1_[A6G]_F3.1_T3.1 (ssRNA)
RNA: UUUGAUUAAUAUGAUAUCGUUCUUUCUCGUAUGUAUUCUUUCUCGAUAUCAUAUUAAUCUUU
B12: Ib_S2_P3E.1_K3.1_C3.1_H3.1_[T1A]_A3.1_[T5C]_F3.1_T3.1 (ssRNA)
RNA: UUUGAUUAAUAUGAUAUCGUUCUUUCUAGUACAUAUUCUUUCUCGAUAUCAUAUUAAUCUUU
B13: Ib_S2_P3E.1_K3.1_C3.1_H3.1_[T1G]_A3.1_[A6G]_F3.1_T3.1 (ssRNA)
RNA: UUUGAUUAAUAUGAUAUCGUUCUUUCUGGUAUGUAUUCUUUCUCGAUAUCAUAUUAAUCUUU

This data set concerns the target T1, PUF4 RNA-binding domain. As to the kind of experiment: Mg; RNA-MaP; 20 mM Na-HEPES pH 7.4, 30 mM KOAc, 0.75 mM MgCl2, 0.1% Tween-20, 5% glycerol, 0.1 mg/mL BSA, 2 mM DTT; 25 C; 0.0125-409.6 nM protein. The note with it: tags: N-His6-TEV cleaved; C-SNAP kept, Cy3B-labelled; label: tethered on chip by stalled RNA polymerase.
Molecule ACAAACUGUAUUUCUCUAUUAACAAAC (ssRNA) [Ie_S3_P5E.1_K5.1_C5.1_H5.1_A5.1_[+6TCTCT]_F5.1_T5.1] showed a Kd of 38.4 nM.

ACAAACUGUAUAUUCUCUAACAAAC (ssRNA) [Ie_S3_P4E.1_K4.1_C4.1_H4.1_A4.1_[+7TCTC]_F4.1_T4.1] gave a dissociation constant (Kd) of 6.81 nM. Compared with the last molecule, the Kd is about 5.6-fold lower.

ACAAACUGUACCUCUUUAUUAACAAAC (ssRNA) [Ie_S3_P5E.1_K5.1_C5.1_H5.1_[+4CCTCT]_A5.1_F5.1_T5.1]: binding was characterised by a dissociation constant (Kd) of 52.5 nM. Compared with the last molecule, the Kd is about 7.7-fold higher.

In the case of ACAAACUGUAUUUCUAUUAACAAAC (ssRNA) [Ie_S3_P5E.1_K5.1_C5.1_H5.1_A5.1_[+6TCT]_F5.1_T5.1], the Kd stood at 7.3 nM.

In turn, ACAAACUGUAUUACUCUCUUAACAAAC (ssRNA) [Ie_S3_P5E.1_K5.1_C5.1_H5.1_A5.1_[+7CTCTC]_F5.1_T5.1] gave a Kd of 128 nM.

On to ACAAACUGUAUAUCUCUCUAACAAAC (ssRNA) [Ie_S3_P4E.1_K4.1_C4.1_H4.1_A4.1_[+7CTCTC]_F4.1_T4.1], for which the affinity, expressed as Kd, was 14.6 nM.

As for ACAAACUGUAUUAUUCCUAACAAAC (ssRNA) [Ie_S3_P5E.1_K5.1_C5.1_H5.1_A5.1_F5.1_[+9CCT]_T5.1], the Kd was 19.9 nM.

B1: the dissociation constant (Kd) was 0.884 nM.

In turn, ACAAACUGUACCUCUUAUUAACAAAC (ssRNA) [Ie_S3_P5E.1_K5.1_C5.1_H5.1_[+4CCTC]_A5.1_F5.1_T5.1] displayed a dissociation constant (Kd) of 27.2 nM.

With ACAAACUCUCGUAUUAUUAACAAAC (ssRNA) [Ie_S3_P5E.1_K5.1_C5.1_H5.1_[+1CTC]_A5.1_F5.1_T5.1], the Kd was found to be 1830 nM. Against the preceding molecule, the Kd is about 67-fold higher.

Turning to ACAAACUGUCUCUUAUUAUUAACAAAC (ssRNA) [Ie_S3_P5E.1_K5.1_C5.1_H5.1_[+2TCTCT]_A5.1_F5.1_T5.1], binding was characterised by a dissociation constant (Kd) of 513 nM.

In turn, ACAAACUGUAUUAUUAUCCACAAAC (ssRNA) [Ie_S3_P5E.1_K5.1_C5.1_H5.1_A5.1_F5.1_[+10TCC]_T5.1] yielded a dissociation constant Kd of 5.94 nM.

The molecule ACAAACUGUCUCUAUUAUUAACAAAC (ssRNA) [Ie_S3_P5E.1_K5.1_C5.1_H5.1_[+3CTCT]_A5.1_F5.1_T5.1] displayed a Kd of 366 nM.

With ACAAACUGUCCUAUUAUUAACAAAC (ssRNA) [Ie_S3_P5E.1_K5.1_C5.1_H5.1_[+2TCC]_A5.1_F5.1_T5.1], the dissociation constant (Kd) stood at 101 nM.

On to ACAAACUGUACCCUUUUAUUAACAAAC (ssRNA) [Ie_S3_P5E.1_K5.1_C5.1_H5.1_[+4CCCTT]_A5.1_F5.1_T5.1], for which the equilibrium dissociation constant (Kd) amounted to 30.4 nM. This Kd is about 3.3-fold lower than that of the molecule before.

Molecule B2 displayed a Kd of 1.01 nM.

Molecule ACAAACUGUAUUACUUUUAACAAAC (ssRNA) [Ie_S3_P5E.1_K5.1_C5.1_H5.1_A5.1_[+7CTT]_F5.1_T5.1] displayed a dissociation constant (Kd) of 115 nM.

ACAAACUGUAUAUUCCUAACAAAC (ssRNA) [Ie_S3_P4E.1_K4.1_C4.1_H4.1_A4.1_[+7TCC]_F4.1_T4.1] displayed a Kd of 7.23 nM.

On to ACAAACUGUAUAUUCCCUAACAAAC (ssRNA) [Ie_S3_P4E.1_K4.1_C4.1_H4.1_A4.1_F4.1_[+8CCCT]_T4.1], for which the equilibrium dissociation constant (Kd) amounted to 6.57 nM.

Regarding ACAAACUGUAUUAUUUCUCAACAAAC (ssRNA) [Ie_S3_P5E.1_K5.1_C5.1_H5.1_A5.1_F5.1_[+9TCTC]_T5.1], the Kd is 19.4 nM.

Molecule ACAAACUGUAUCCCUUUAUUAACAAAC (ssRNA) [Ie_S3_P5E.1_K5.1_C5.1_H5.1_A5.1_[+5CCCTT]_F5.1_T5.1] displayed a Kd of 92.6 nM. This Kd lies about 4.8-fold higher than the previous one.

Take ACAAACUGUAUUAUUUCUAACAAAC (ssRNA) [Ie_S3_P5E.1_K5.1_C5.1_H5.1_A5.1_F5.1_[+8TTC]_T5.1]: the dissociation constant Kd is 19.1 nM.

B3 registered a Kd of 0.858 nM.

As for ACAAACUGUAUUAUUCCCAACAAAC (ssRNA) [Ie_S3_P5E.1_K5.1_C5.1_H5.1_A5.1_F5.1_[+9CCC]_T5.1], the Kd came out at 18.1 nM.

B4 had a Kd of 0.942 nM.

B5 gave an equilibrium dissociation constant (Kd) of 0.769 nM. The Kd values of the last two molecules are within 1.5-fold of each other.

With B6, the Kd is 1.2 nM.

Take ACAAACUGUACUCUUAUUAACAAAC (ssRNA) [Ie_S3_P5E.1_K5.1_C5.1_H5.1_[+4CTC]_A5.1_F5.1_T5.1]: the dissociation constant (Kd) was 7.73 nM.

The molecule ACAAACUGUAUUAUUUUCAACAAAC (ssRNA) [Ie_S3_P5E.1_K5.1_C5.1_H5.1_A5.1_F5.1_[+9TTC]_T5.1] yielded a Kd of 19.8 nM.

Turning to ACAAACUGUAUAUUAUUCCACAAAC (ssRNA) [Ie_S3_P4E.1_K4.1_C4.1_H4.1_A4.1_F4.1_[+9TTCC]_T4.1], binding was put at a Kd of 0.554 nM.

With ACAAACUGUAUCUCUCUAUUAACAAAC (ssRNA) [Ie_S3_P5E.1_K5.1_C5.1_H5.1_A5.1_[+5CTCTC]_F5.1_T5.1], the dissociation constant Kd is 30.4 nM.

The molecule ACAAACUGCCUCUAUUAUUAACAAAC (ssRNA) [Ie_S3_P5E.1_K5.1_C5.1_H5.1_[+2CCTC]_A5.1_F5.1_T5.1] displayed a dissociation constant Kd of more than 2300 nM.

In turn, ACAAACUGCUUUAUUAUUAACAAAC (ssRNA) [Ie_S3_P5E.1_K5.1_C5.1_H5.1_[+2CTT]_A5.1_F5.1_T5.1] registered a Kd of more than 2300 nM.

The molecule ACAAACUGUAUUACCUUUAACAAAC (ssRNA) [Ie_S3_P5E.1_K5.1_C5.1_H5.1_A5.1_[+7CCT]_F5.1_T5.1] came in with a Kd of 221 nM.

In the case of ACAAACUGUAUAUUUCUCAACAAAC (ssRNA) [Ie_S3_P4E.1_K4.1_C4.1_H4.1_A4.1_F4.1_[+8TCTC]_T4.1], the Kd stood at 8.77 nM.

For ACAAACUGUCUAUUAUUAACAAAC (ssRNA) [Ie_S3_P5E.1_K5.1_C5.1_H5.1_[+3CT]_A5.1_F5.1_T5.1], the equilibrium dissociation constant (Kd) came to 28.6 nM.

With ACAAACUGUAUUACCCUUAACAAAC (ssRNA) [Ie_S3_P5E.1_K5.1_C5.1_H5.1_A5.1_[+7CCC]_F5.1_T5.1], the affinity, expressed as Kd, was 510 nM. Against the preceding molecule, the Kd is about 18-fold higher.

Molecule ACAAACUGUAUUCCCAUUAACAAAC (ssRNA) [Ie_S3_P5E.1_K5.1_C5.1_H5.1_A5.1_[+6CCC]_F5.1_T5.1] gave a dissociation constant Kd of 203 nM.

In turn, B7 displayed an equilibrium dissociation constant (Kd) of 0.987 nM.

B8 returned a Kd of 1.07 nM. The Kd values of the last two molecules are within 1.5-fold of each other.

ACAAACUGUAUUAUUCCUCUAACAAAC (ssRNA) [Ie_S3_P5E.1_K5.1_C5.1_H5.1_A5.1_F5.1_[+9CCTCT]_T5.1] gave a dissociation constant Kd of 20.7 nM.

As to ACAAACUGUCCCUUAUUAUUAACAAAC (ssRNA) [Ie_S3_P5E.1_K5.1_C5.1_H5.1_[+3CCCTT]_A5.1_F5.1_T5.1], the equilibrium dissociation constant (Kd) turned out to be 698 nM. Against the preceding molecule, the Kd is about 34-fold higher.

As for ACAAACUGUAUUAUUUCCUAACAAAC (ssRNA) [Ie_S3_P5E.1_K5.1_C5.1_H5.1_A5.1_F5.1_[+8TTCC]_T5.1], the Kd was 21.6 nM.

ACAAACUGUAUUAUCUCUCUAACAAAC (ssRNA) [Ie_S3_P5E.1_K5.1_C5.1_H5.1_A5.1_F5.1_[+8CTCTC]_T5.1] gave a Kd of 29.1 nM.

For ACAAACUGCUUAUUAUUAACAAAC (ssRNA) [Ie_S3_P5E.1_K5.1_C5.1_H5.1_[+2CT]_A5.1_F5.1_T5.1], the Kd was more than 2300 nM.

On to ACAAACUGUAUUAUUCUCAACAAAC (ssRNA) [Ie_S3_P5E.1_K5.1_C5.1_H5.1_A5.1_F5.1_[+9CTC]_T5.1], for which binding was put at a Kd of 23 nM.

B9 had a dissociation constant Kd of more than 2300 nM.

B10 came in with a Kd of more than 2300 nM.

Take B11: the Kd came to 75.7 nM.

Molecule B12 yielded a Kd of more than 2300 nM.

For the molecule B13, the affinity, expressed as Kd, was 277 nM.

Take ACAAACUGUAUUAUCCCUAACAAAC (ssRNA) [Ie_S3_P5E.1_K5.1_C5.1_H5.1_A5.1_F5.1_[+8CCC]_T5.1]: the Kd came to 37.5 nM.
